Source: the DeepSol protein solubility set

Assay: soluble on expression in E. coli; label from the status in PepcDB or PDB records

Sequence: MSHSYSVPKKFPTTVVGSYPKIGPASEAIKKRRAGEISEEEFHRIARESIRMVVEDYIWAGVDIISDGEQTREDMVVYFAERLEGYREGDWVRVFDNVYFRKPIVAGRVRWVRPMIIEDWEYARSISAGRPVKFIITGPYTMLEWSFDLHYGDRRELIFDLARAIRREIDEALARGAEYIQVDEPALSTRPFKEEAELLKEALDIIFKGVGAKRIVHICYGELERILPYILDYPVDQFDLEMKNSNFRLLPYLKEYGYDKEIGYGVIDVHSFQVESVGEVKEAIDRLMKMDIVGPEKVYVDPDCGLKRLPRDVARAKLKNMVEAARLAREEWMAGDPLEHHHHHH
- soluble on expression in E. coli: not soluble

Sequence: KTFEPTNPFFRVVLRPSYLYRGCIMYLPSGFAEKYLSGISGFIKVQLAEKQWPVRCLYKAGRAKFSQGWYEFTLENNLGEGDVCVFELLRTRDFVLKVTAFRVNEYV
- soluble on expression in E. coli: not soluble

Sequence: AIAKLPISTISPIHYMKSVVSSRETRNESNKSRRTFASTEWNKIIRETLYLETVYIPVDATSHSPDIIFKLQSPVEPKVLTVGVACKGRWKSEGIGWSDIIDEAKKFLDPVYDQVLSSAMDYHHCMLIIVSTKLSLNVSNELGNQSRCYSSGMFIGGDSFKVPDNCELVILCERDVQMLIDKEILNGLERAFCVSHNPTFWDFGLDLLDRIRNSFLSWQ
- soluble on expression in E. coli: soluble

Sequence: MIEWQDLHHSELSVSQLYALLQLRCAVFVVEQNCPYQDIDGDDLTGDNRHILGWKNDELVAYARILKSDDDLEPVVIGRVIVSEALRGEKVGQQLMSKTLETCTHHWPDKPVYLGAQAHLQNFYQSFGFIPVTEVYEEDGIPHIGMAREVIQALEHHHHHH
- soluble on expression in E. coli: not soluble

Sequence: MIAITGASGQLGRLVIAQLLEKVPASDIVALVRDVNKVADLSAKGVQVKAADYNQPEALAFALQGVDKVLLISSSEVGQRAAQHRNVIEAAVKAGVKLVAYTSLLHADKSPLALAEEHRQTEALLKDSGLPHVLLRNGWYTENYAASIPAALEHGVFIGSAGEGKITSATREDFAAAAVAVLTQEGQAGKVYELAGDEPYTLVELAAEISKQSGKSIGYQNLSGAEFTAALVSAGLPDVFAQIIADSDVGASKGGLFDGGKHLSQLIGRPTTPLSAVVKATLK
- soluble on expression in E. coli: soluble

Sequence: MGSDKIHHHHHHMMVLTLKDFEQTYFYKTELIQLCKVYGLPTYGTKAELNKYLTLYLSGTPACDIKVNRKHTTSRNKTKITLETKILGEGFSFNQEARKLFAEYFGKEKFSFKKEMAVIKRQAEHNGETKMTVRDLLERYQEMVGQGNVLRETAEEATYQWNNFVRDFCKSSESQNYHQKLKVAAILWEKVKNSKNDKKFEASLVQKYEKNISNYMNK
- soluble on expression in E. coli: not soluble

Sequence: GSRSEPAKVVDIRIDTSAERKPISPYIYGSNQELDATVTAKRFGGNRTTGYNWENNFSNAGSDWLHYSDTYLLEDGGVPKGEWSTPASVVTTFHDKALSKNVPYTLITLQAAGYVSADGNGPVSQEETAPSSRWKEVKFEKGAPFSLTPDTEDDYVYMDEFVNYLVNKYGNASTPTGIKGYSIDNEPALWSHTHPRIHPDNVTAKELIEKSVALSKAVKKVDPYAEIFGPALYGFAAYETLQSAPDWGTEGEGYRWFIDYYLDKMKKASDEEGKRLLDVLDVHWYPEARGGGERICFGADPRNIETNKARLQAPRTLWDPTYIEDSWIGQWKKDFLPILPNLLDSIEKYYPGTKLAITEYDYGGGNHITGGIAQADVLGIFGKYGVYLATFWGDASNNYTEAGINLYTNYDGKGGKFGDTSVKCETSDIEVSSAYASIVGEDDSKLHIILLNKNYDQPTTFNFSIDSSKNYTIGNVWAFDRGSSNITQRTPIVNIKDNTFTYTVPALTACHIVLEAAEP
- soluble on expression in E. coli: soluble

Sequence: MSLGDSEIYVSLDIGTASVKVIIAEMADDRLNIIGVGNVESSGIKKGIIIDIHKTVESIKKAIEQAERMVGVEISQVIVGVVSSQVHLEACRGIVAVGSENREITDEDVWNVMDAAQVVPLSPEREIINTIPDQFVVDGLTGITDPRGMIGVRLEMEGTLITGSKTILHNTLRCVERAGLEISDIALQPLAEASISLSEDDKEFGTALVNVGAGTTTVSVFEQGRLTYTGVIPVGGDNITKDLSLGLNTSTANADRVKLDHGYAFYDDASPDEVFAIDVIGSDQKQHFTQVEVADIIEARMEEIFQLVVEELTRVGKTHLPGGYVLTGGSMAIPGAIDLAGKTLAAHVRLAIPDYIGVREPSFTTAVGLIKYAYQMVELEGRDVSSEGHHHHHH
- soluble on expression in E. coli: soluble
